Reference: the nanobody polyreactivity screen of Harvey et al. (2022)

Assay: yeast display, Sf9 membrane polyspecificity reagent, FACS + sequencing; frameworks hold sequencing errors
Summary of the method: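 A synthetic nanobody library was expressed on Saccharomyces cerevisiae BJ5465 by galactose induction for 36–48 hours. The library was stained for 1 hour at 4 °C with 10% biotinylated, detergent-solubilized Sf9 membrane reagent and enriched with streptavidin microbeads before FACS. Low and high (top ~1%) gates were set on anti-HA fluorescence for expression and streptavidin fluorescence for reagent binding, and each polyreactivity label reflects the gate of origin.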

Sequence | polyreactivity (PSR sort gate)
QVQLVESGGGLVQAGGSLRLSCAASGRTFYYAMGWYRQAPGKERELVATITSGGSTNYADSVKGRFTISRDNAKNTVYVQMNSLKPEDTAVYYCNRDIPPGNYYKALYYYWGQGTQVTVSS | low polyreactivity
QVQLVESGGGLVQAGGSLRLSCAASGRTFYYARGWYRQAPGKERELVAAITSSSSTYSADSVKGRFTISRDNAKNTVYLQMNSLKPEDTAVYYCNAADDPYGSPSYGYDYWGQGTQVTVSS | low polyreactivity
QVQLVESGGGLVQAGGSLRLSCAASGRTFYYNGMGWYRQAPGKERELVAAITSGGTTSYADSVKGRFTISRDNAKNTVYLLMNCLKPEDTAVYYCNAECAPWGSAYGHDQYDYWGQGTQVTVSS | low polyreactivity
QVQLVESGGGLVQAGGSLRLSCAASGRTFYYNVMGWYRQAPGKERELVAAISTGVSTNYADSVKGRFTISRDNAKNTVYLQMNSLKPEDTAVYYCNARSYRWYRPVYRYDYWGQGTQVTVSS | high polyreactivity
QVQLVESGGGLVQAGGSLRLSCAASGRTFYYYAMGWYIQAPGKEREFVASISYSGARTYYADSVKGRFTISRDNAKNTVYLQMNSLKPEDTAVYYCNRYASNYGYIDYWGQGTQVTVSS | high polyreactivity
QVQLVESGGGLVQAGGSLRLSCAASGRTFYYYAMGWYIQAPGKERELVATITKSSGSTSYADSVKGRFTISRDNAKNTVYLQMNSLKPEDTAVYYCAKVFRSGGVYRYDYWGQGTQVTVSS | high polyreactivity
QVQLVESGGGLVQAGGSLRLSCAASGRTFYYYAMGWYRQAPGKERELVAAISRGGGSTYYADSVKGRFTISRDNAKNTVYLQMNSLKPEDTAVYSWNKVYSTSSYDYWGQGTQVTVSS | high polyreactivity
QVQLVESGGGLVQAGGSLRLSCAASGRTFYYYAMGWYRQAPGKERELVAAISSNGGSTYADSVKGRYTISRDNAKNTVYLQMNSLKPEDTAVYYCNARFTYRWGMGYWGHGTQVTVSS | high polyreactivity
QVQLVESGGGLVQAGGSLRLSCAASGRTFYYYAMGWYRQAPGKERELVAAITSNGGSTYYADSVKGRFTISRDNAKNTVYLPMNSLKPEDTAVYYCAADTYWYLSPYDYWGQGTQVTVSS | low polyreactivity
QVQLVESGGGLVQAGGSLRLSCAASGRTFYYYAMGWYRQAPGKERELVARISRGGSTNYADSVKGRFTISRDNAKNTVYLQMNSLKPEDTAVYYCAKTISYTGRFWGYDYWGQGTQVTVSS | high polyreactivity
QVQLVESGGGLVQAGGSLRLSCAASGRTFYYYGMGWYRQAPGKERELVAAINRGDSTKYADSVKGRFTISRDNAKNTVYLQMNSLKPEDTAVYYCNARLRASFARFIYEYWGQGTQVTVSS | low polyreactivity
QVQLVESGGGLVQAGGSLRLSCAASGRTIADNAMGWYRQAPGKEREVVATISYSDSTTYYADSVKGRFTISRDNAKNTVYLQMNSLKPEDTAVYYCAAERLTHWGAFAAYDYWGQGTQVTVSS | low polyreactivity
QVQLVESGGGLVQAGGSLRLSCAASGRTIANNAMGWYRQAPGKERQLVAVITNSGRTYYADSVKGRFTISRDNAKNTVYLQMNSLKPEDTAVYYCAVRYFDRGGSEHPVTFYWGQGTQVTVSS | high polyreactivity
QVQLVESGGGLVQAGGSLRLSCAASGRTIAQYAMGWSRQAPGKERELVAAISSSGGSTYYADSVKGRFTISRDNAKNTVYLQMNSLKPEDTAVYYCAKYGTKAKQYDYWGQGTQVTVSS | high polyreactivity
QVQLVESGGGLVQAGGSLRLSCAASGRTIDHNTMGWYRQAPGKERELVAAISWSGGTTYYADSVKGRFTISRDNEKNTVYLQMNSLKPEDTAVYYCAADRSRGSYGYQYDYWGQGTQVSVSS | low polyreactivity
QVQLVESGGGLVQAGGSLRLSCAASGRTIDHYAMGWYRQAPGKDRELVAAISTTGGSTYYADSVKGRFTISRDNAMNTVYLQMNSLKPEDTAVYFCAARGLRTGGYWGQGTQVTVSS | high polyreactivity

Sequence | polyreactivity (PSR sort gate)
QVQLVESGGGLVQAGGSLRLSCAASGRTIDHYAMGWYRQAPGKERELVAAISTTGGSTYYADSVKGRFTISRDNAKNTVYLQMNSLKPEYTAVYYCAARGLRTGGYWGQGTQVTVSS | high polyreactivity
QVQLVESGGGLVQAGGSLRLSCAASGRTIDPNAMGWYRQAPGKERELVAAITRTGVRTYYADSVKGRFTISRDNAKNTVYLQMNSLKPEDTAVYYCNRYGARSNDYWGQGTQVTVSS | low polyreactivity
QVQLVESGGGLVQAGGSLRLSCAASGRTIDRMLMGSYRQAPGKERELVAAITSGGRTNYADSVKGRFTISRDNAKNTVYLKMNSLKAEDTAFYYCARHGGRRPVSSKGNTYDYWGQGTQVTVLS | low polyreactivity
QVQLVESGGGLVQAGGSLRLSCAASGRTIDWYAMGWYRQAPGKVRELVAGITYSGGSTYYADSVKGRFTISRDIANKTVYFQMNSLKPEDTAVYYCAAAKSYRSGSWYEYWGQGTQVTVSS | high polyreactivity
QVQLVESGGGLVQAGGSLRLSCAASGRTIEGNVMGWYRQAPGKERELVAAITRTAGSTYYADSVKGRFTISRDNAKNTVYLQMNSLKPEDTAVYYCAVEGIYRWYDYSWYYTSTYDYWGQGTQVTVSS | low polyreactivity
QVQLVESGGGLVQAGGSLRLSCAASGRTIFYNAMGWYRQAPGKERELVAAINWRGGSTYYADSVKGRFTISRDIAKNTVYLQMNSLKPEDTAVYYCAARNVYVWYDYWGQGTQVTVSS | low polyreactivity
QVQLVESGGGLVQAGGSLRLSCAASGRTIGAYAMGWYRQAPGKEREFVAAITFGGGPTYYADSVKGRFTISRDNAKNTVYLQMNSLKPEDTAVYYCAKRIDLSFPYARYDYWGQGTQVTVSS | low polyreactivity
QVQLVESGGGLVQAGGSLRLSCAASGRTIGGYVMGWYRQAPGTERELVAVITISGGSTYYADSVKGRFTISRDNAKNTVYLQMNSLKPEDTAVYYCAARTYYGYDYWGQGTQVTVSS | high polyreactivity
QVQLVESGGGLVQAGGSLRLSCAASGRTIGSYAMGWYRQAPGKERELVAAITSSCGSTYYADSVKGRFTISRDNAKNTVYLQMNSLKPEDTAVYDCAALWGRRGWWGVSWSFSTGFDYWGQGTQVTVSS | high polyreactivity
QVQLVESGGGLVQAGGSLRLSCAASGRTIGVYALGWSRQAPGKERELVAALTTSGDSTYYADSVKGRFTISRDNAKNTDYLQMNSLKPEDTAVYYCAARSYRKPRHVSVTYYYWGQGTQVTVSS | low polyreactivity
QVQLVESGGGLVQAGGSLRLSCAASGRTIGYNDLGWYRQAPGKERELVAAIDWSGGSTYYADSVKGRFTISRDNAKNTVYLQMNSLKPEDTAVYDCAALVWRDEYDYLGQGTQVTVSS | low polyreactivity
QVQLVESGGGLVQAGGSLRLSCAASGRTIKYTAMGWYRQAPGKERDLVAAITYSGGSTYYADSVKGRFTISRDNAKNTVYLQMNSLKPEDTAVYYCGQGTQVTVSS | low polyreactivity
QVQLVESGGGLVQAGGSLRLSCAASGRTIPFNAMGWYRQAPGKERELVAAISSSAGRTYYADSVKGRFTISRDNAKNTVYLQMNSLKPEDTAVYYCAARLYGRYRYDYWGHGTQVTVSS | low polyreactivity
QVQLVESGGGLVQAGGSLRLSCAASGRTIPNVMGWYRQAPGKERELVAAISSSVGSTSYADSVKGRFTISRDNAKNTVYLQMNSLKPEDTAVYYCAARYYYRDWVGIISTYYYWGQGTQVTVSS | high polyreactivity
QVQLVESGGGLVQAGGSLRLSCAASGRTIPTYDMGWYRQAPGKERELVASIRSGGRTKYADSVKGRFTISRVNAKNTVYLQMNSLKPEDTAVYYCAADRRAYYYSFDYWGQGTQVTVSS | low polyreactivity
QVQLVESGGGLVQAGGSLRLSCAASGRTIRGYAMGWYRQAPGKEREFVASITWNSVSTSYADSVKGRFTISRDNAKNTVYLQMNSLKPEDTAVYYCNRRTGSYGRTPVGKGEYYYWGQGTQVTVSS | high polyreactivity
